Target: prefusion-stabilized SARS-CoV-2 spike protein (S-clamp) (SARS-CoV-2)
Assay: SEC

Substance: prefusion-stabilized SARS-CoV-2 spike protein (S-clamp)
- stoichiometry N: 3

— paper doi:10.1101/2022.01.11.475947
